# B1: human malic enzyme 3 (mitochondrial NADP+-dependent malic enzyme 3), residues 46-604 (enzyme, UniProt Q16798 46-604, looked up)
# chain: LKKRGYDVTRNPHLNKGMAFTLEERLQLGIHGLIPPCFLSQDVQLLRIMRYYERQQSDLDKYIILMTLQDRNEKLFYRVLTSDVEKFMPIVYTPTVGLACQHYGLTFRRPRGLFITIHDKGHLATMLNSWPEDNIKAVVVTDGERILGLGDLGCYGMGIPVGKLALYTACGGVNPQQCLPVLLDVGTNNEELLRDPLYIGLKHQRVHGKAYDDLLDEFMQAVTDKFGINCLIQFEDFANANAFRLLNKYRNKYCMFNDDIQGTASVAVAGILAALRITKNKLSNHVFVFQGAGEAAMGIAHLLVMALEKEGVPKAEATRKIWMVDSKGLIVKGRSHLNHEKEMFAQDHPEVNSLEEVVRLVKPTAIIGVAAIAGAFTEQILRDMASFHERPIIFALSNPTSKAECTAEKCYRVTEGRGIFASGSPFKSVTLEDGKTFIPGQGNNAYVFPGVALGVIAGGIRHIPDEIFLLTAEQIAQEVSEQHLSQGRLYPPLSTIRDVSLRIAIKVLDYAYKHNLASYYPEPKDKEAFVRSLVYTPDYDSFTLDSYTWPKEAMNVQTV
# Target: the molecule itself
# Assay: SEC
protein,measurement,value
B1,stoichiometry N,4

# Reference: publication doi:10.1101/2022.08.25.505315 (bioRxiv, 2022)
